Source: US20240279278A1, “NMU RECEPTOR 2 AGONISTS” (Boehringer Ingelheim International GmbH, priority 2023, published 2024)
Starred links: 1 amine or outer side, 2 acyl side, 3 side chain; linkers in the order of their positions; H or OH if unused. Non-standard residues stand in square brackets, D forms with d. *: point of attachment. Pipz(1-CH2CO,4-CH2CH2NH) = O=C(CN1CCN(CCN[*:1])CC1)[*:2]; C18 diacid = O=C(O)CCCCCCCCCCCCCCCCC(=O)*; γGlu = O=C(O)[C@H](CCC(=O)[*:2])N[*:1]; 4Pal = N[C@@H](Cc1ccncc1)C(=O)O; NMeL = CN[C@@H](CC(C)C)C(=O)O; Nle = CCCC[C@H](N)C(=O)O; Sar = CNCC(=O)O

T1: human neuromedin U receptor 1 (human, UniProt Q9HB89 24-426)
T1 sequence (looked up): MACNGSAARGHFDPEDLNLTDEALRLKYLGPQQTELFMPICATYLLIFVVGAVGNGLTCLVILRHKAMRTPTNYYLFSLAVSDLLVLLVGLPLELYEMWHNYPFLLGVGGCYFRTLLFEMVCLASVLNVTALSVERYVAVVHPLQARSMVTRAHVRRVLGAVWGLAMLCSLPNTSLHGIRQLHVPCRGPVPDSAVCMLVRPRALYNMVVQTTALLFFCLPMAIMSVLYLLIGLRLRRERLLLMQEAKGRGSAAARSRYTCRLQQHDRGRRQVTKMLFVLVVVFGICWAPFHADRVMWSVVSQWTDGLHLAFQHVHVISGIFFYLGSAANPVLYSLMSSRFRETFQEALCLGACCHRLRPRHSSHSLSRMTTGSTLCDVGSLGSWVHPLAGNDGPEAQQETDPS

B1: C18DA-gGlu3-Sar12-AEPipAc-Tyr-Phe-NMeLeu-Nle-NMeArg-NMeAla-Arg-Gly-NH2 (peptide)
peptide: EEEXXXXXXXXXXXXXYFLXRARG
HELM: PEPTIDE1{[O=C(O)CCCCCCCCCCCCCCCCC(=O)[*:2]].[gGlu].[gGlu].[gGlu].[Sar].[Sar].[Sar].[Sar].[Sar].[Sar].[Sar].[Sar].[Sar].[Sar].[Sar].[Sar].[O=C(CN1CCN(CCN[*:1])CC1)[*:2]].Y.F.[meL].[Nle].[meR].[meA].R.G.[am]}$$$$V2.0
SMILES: CCCC[C@H](NC(=O)[C@H](CC(C)C)N(C)C(=O)[C@H](Cc1ccccc1)NC(=O)[C@H](Cc1ccc(O)cc1)NC(=O)CN1CCN(CCNC(=O)CN(C)C(=O)CN(C)C(=O)CN(C)C(=O)CN(C)C(=O)CN(C)C(=O)CN(C)C(=O)CN(C)C(=O)CN(C)C(=O)CN(C)C(=O)CN(C)C(=O)CN(C)C(=O)CN(C)C(=O)CC[C@H](NC(=O)CC[C@H](NC(=O)CC[C@H](NC(=O)CCCCCCCCCCCCCCCCC(=O)O)C(=O)O)C(=O)O)C(=O)O)CC1)C(=O)N(C)[C@@H](CCCNC(=N)N)C(=O)N(C)[C@@H](C)C(=O)N[C@@H](CCCNC(=N)N)C(=O)NCC(N)=O
B2: C20DA-gGlu4-Sar12-AEPipAc-Tyr-Phe-NMeLeu-Nle-Arg-Pro-Arg-Gly-NH2 (peptide)
peptide: EEEEXXXXXXXXXXXXXYFLXRPRG
HELM: PEPTIDE1{[O=C(O)CCCCCCCCCCCCCCCCCCC(=O)[*:2]].[gGlu].[gGlu].[gGlu].[gGlu].[Sar].[Sar].[Sar].[Sar].[Sar].[Sar].[Sar].[Sar].[Sar].[Sar].[Sar].[Sar].[O=C(CN1CCN(CCN[*:1])CC1)[*:2]].Y.F.[meL].[Nle].R.P.R.G.[am]}$$$$V2.0
SMILES: CCCC[C@H](NC(=O)[C@H](CC(C)C)N(C)C(=O)[C@H](Cc1ccccc1)NC(=O)[C@H](Cc1ccc(O)cc1)NC(=O)CN1CCN(CCNC(=O)CN(C)C(=O)CN(C)C(=O)CN(C)C(=O)CN(C)C(=O)CN(C)C(=O)CN(C)C(=O)CN(C)C(=O)CN(C)C(=O)CN(C)C(=O)CN(C)C(=O)CN(C)C(=O)CN(C)C(=O)CC[C@H](NC(=O)CC[C@H](NC(=O)CC[C@H](NC(=O)CC[C@H](NC(=O)CCCCCCCCCCCCCCCCCCC(=O)O)C(=O)O)C(=O)O)C(=O)O)C(=O)O)CC1)C(=O)N[C@@H](CCCNC(=N)N)C(=O)N1CCC[C@H]1C(=O)N[C@@H](CCCNC(=N)N)C(=O)NCC(N)=O
B3: C18DA-gGlu3-Sar15-AEPipAc-Tyr-Phe-NMeLeu-Nle-4Pal-Pro-Arg-Gly-NH2 (peptide)
peptide: {C18 diacid}-[γGlu][γGlu][γGlu][Sar][Sar][Sar][Sar][Sar][Sar][Sar][Sar][Sar][Sar][Sar][Sar][Sar][Sar][Sar][Pipz(1-CH2CO,4-CH2CH2NH)]YF[NMeL][Nle][4Pal]PRG-NH2
SMILES: CCCC[C@H](NC(=O)[C@H](CC(C)C)N(C)C(=O)[C@H](Cc1ccccc1)NC(=O)[C@H](Cc1ccc(O)cc1)NC(=O)CN1CCN(CCNC(=O)CN(C)C(=O)CN(C)C(=O)CN(C)C(=O)CN(C)C(=O)CN(C)C(=O)CN(C)C(=O)CN(C)C(=O)CN(C)C(=O)CN(C)C(=O)CN(C)C(=O)CN(C)C(=O)CN(C)C(=O)CN(C)C(=O)CN(C)C(=O)CN(C)C(=O)CC[C@H](NC(=O)CC[C@H](NC(=O)CC[C@H](NC(=O)CCCCCCCCCCCCCCCCC(=O)O)C(=O)O)C(=O)O)C(=O)O)CC1)C(=O)N[C@@H](Cc1ccncc1)C(=O)N1CCC[C@H]1C(=O)N[C@@H](CCCNC(=N)N)C(=O)NCC(N)=O
B4: C18DA-gGlu2-Sar9-AEPipAc-Tyr-Phe-NMeLeu-Nle-Orn-NMeAla-Arg-Gly-NH2 (peptide)
peptide: EEXXXXXXXXXXYFLXXARG
HELM: PEPTIDE1{[O=C(O)CCCCCCCCCCCCCCCCC(=O)[*:2]].[gGlu].[gGlu].[Sar].[Sar].[Sar].[Sar].[Sar].[Sar].[Sar].[Sar].[Sar].[O=C(CN1CCN(CCN[*:1])CC1)[*:2]].Y.F.[meL].[Nle].[Orn].[meA].R.G.[am]}$$$$V2.0
SMILES: CCCC[C@H](NC(=O)[C@H](CC(C)C)N(C)C(=O)[C@H](Cc1ccccc1)NC(=O)[C@H](Cc1ccc(O)cc1)NC(=O)CN1CCN(CCNC(=O)CN(C)C(=O)CN(C)C(=O)CN(C)C(=O)CN(C)C(=O)CN(C)C(=O)CN(C)C(=O)CN(C)C(=O)CN(C)C(=O)CN(C)C(=O)CC[C@H](NC(=O)CC[C@H](NC(=O)CCCCCCCCCCCCCCCCC(=O)O)C(=O)O)C(=O)O)CC1)C(=O)N[C@@H](CCCN)C(=O)N(C)[C@@H](C)C(=O)N[C@@H](CCCNC(=N)N)C(=O)NCC(N)=O
B5: C20DA-gGlu4-Sar12-AEPipAc-Tyr-Phe-NMeLeu-Nle-Orn-Pro-Arg-Gly-NH2 (peptide)
peptide: EEEEXXXXXXXXXXXXXYFLXXPRG
HELM: PEPTIDE1{[O=C(O)CCCCCCCCCCCCCCCCCCC(=O)[*:2]].[gGlu].[gGlu].[gGlu].[gGlu].[Sar].[Sar].[Sar].[Sar].[Sar].[Sar].[Sar].[Sar].[Sar].[Sar].[Sar].[Sar].[O=C(CN1CCN(CCN[*:1])CC1)[*:2]].Y.F.[meL].[Nle].[Orn].P.R.G.[am]}$$$$V2.0
SMILES: CCCC[C@H](NC(=O)[C@H](CC(C)C)N(C)C(=O)[C@H](Cc1ccccc1)NC(=O)[C@H](Cc1ccc(O)cc1)NC(=O)CN1CCN(CCNC(=O)CN(C)C(=O)CN(C)C(=O)CN(C)C(=O)CN(C)C(=O)CN(C)C(=O)CN(C)C(=O)CN(C)C(=O)CN(C)C(=O)CN(C)C(=O)CN(C)C(=O)CN(C)C(=O)CN(C)C(=O)CC[C@H](NC(=O)CC[C@H](NC(=O)CC[C@H](NC(=O)CC[C@H](NC(=O)CCCCCCCCCCCCCCCCCCC(=O)O)C(=O)O)C(=O)O)C(=O)O)C(=O)O)CC1)C(=O)N[C@@H](CCCN)C(=O)N1CCC[C@H]1C(=O)N[C@@H](CCCNC(=N)N)C(=O)NCC(N)=O
B6: C20DA-gGlu3-Sar15-AEPipAc-Tyr-Phe-NMeLeu-Nle-NMeArg-NMeAla-Arg-Gly-NH2 (peptide)
peptide: EEEXXXXXXXXXXXXXXXXYFLXRARG
HELM: PEPTIDE1{[O=C(O)CCCCCCCCCCCCCCCCCCC(=O)[*:2]].[gGlu].[gGlu].[gGlu].[Sar].[Sar].[Sar].[Sar].[Sar].[Sar].[Sar].[Sar].[Sar].[Sar].[Sar].[Sar].[Sar].[Sar].[Sar].[O=C(CN1CCN(CCN[*:1])CC1)[*:2]].Y.F.[meL].[Nle].[meR].[meA].R.G.[am]}$$$$V2.0
SMILES: CCCC[C@H](NC(=O)[C@H](CC(C)C)N(C)C(=O)[C@H](Cc1ccccc1)NC(=O)[C@H](Cc1ccc(O)cc1)NC(=O)CN1CCN(CCNC(=O)CN(C)C(=O)CN(C)C(=O)CN(C)C(=O)CN(C)C(=O)CN(C)C(=O)CN(C)C(=O)CN(C)C(=O)CN(C)C(=O)CN(C)C(=O)CN(C)C(=O)CN(C)C(=O)CN(C)C(=O)CN(C)C(=O)CN(C)C(=O)CN(C)C(=O)CC[C@H](NC(=O)CC[C@H](NC(=O)CC[C@H](NC(=O)CCCCCCCCCCCCCCCCCCC(=O)O)C(=O)O)C(=O)O)C(=O)O)CC1)C(=O)N(C)[C@@H](CCCNC(=N)N)C(=O)N(C)[C@@H](C)C(=O)N[C@@H](CCCNC(=N)N)C(=O)NCC(N)=O
B7: C18DA-gGlu4-Sar12-AEPipAc-Tyr-Phe-NMeLeu-Nle-Orn-Pro-Arg-Gly-NH2 (peptide)
peptide: EEEEXXXXXXXXXXXXXYFLXXPRG
HELM: PEPTIDE1{[O=C(O)CCCCCCCCCCCCCCCCC(=O)[*:2]].[gGlu].[gGlu].[gGlu].[gGlu].[Sar].[Sar].[Sar].[Sar].[Sar].[Sar].[Sar].[Sar].[Sar].[Sar].[Sar].[Sar].[O=C(CN1CCN(CCN[*:1])CC1)[*:2]].Y.F.[meL].[Nle].[Orn].P.R.G.[am]}$$$$V2.0
SMILES: CCCC[C@H](NC(=O)[C@H](CC(C)C)N(C)C(=O)[C@H](Cc1ccccc1)NC(=O)[C@H](Cc1ccc(O)cc1)NC(=O)CN1CCN(CCNC(=O)CN(C)C(=O)CN(C)C(=O)CN(C)C(=O)CN(C)C(=O)CN(C)C(=O)CN(C)C(=O)CN(C)C(=O)CN(C)C(=O)CN(C)C(=O)CN(C)C(=O)CN(C)C(=O)CN(C)C(=O)CC[C@H](NC(=O)CC[C@H](NC(=O)CC[C@H](NC(=O)CC[C@H](NC(=O)CCCCCCCCCCCCCCCCC(=O)O)C(=O)O)C(=O)O)C(=O)O)C(=O)O)CC1)C(=O)N[C@@H](CCCN)C(=O)N1CCC[C@H]1C(=O)N[C@@H](CCCNC(=N)N)C(=O)NCC(N)=O
B8: C18DA-gGlu4-Sar12-AEPipAc-Tyr-Phe-NMeLeu-Nle-Dbu-Pro-Arg-Gly-NH2 (peptide)
peptide: EEEEXXXXXXXXXXXXXYFLXXPRG
HELM: PEPTIDE1{[O=C(O)CCCCCCCCCCCCCCCCC(=O)[*:2]].[gGlu].[gGlu].[gGlu].[gGlu].[Sar].[Sar].[Sar].[Sar].[Sar].[Sar].[Sar].[Sar].[Sar].[Sar].[Sar].[Sar].[O=C(CN1CCN(CCN[*:1])CC1)[*:2]].Y.F.[meL].[Nle].[Dab].P.R.G.[am]}$$$$V2.0
SMILES: CCCC[C@H](NC(=O)[C@H](CC(C)C)N(C)C(=O)[C@H](Cc1ccccc1)NC(=O)[C@H](Cc1ccc(O)cc1)NC(=O)CN1CCN(CCNC(=O)CN(C)C(=O)CN(C)C(=O)CN(C)C(=O)CN(C)C(=O)CN(C)C(=O)CN(C)C(=O)CN(C)C(=O)CN(C)C(=O)CN(C)C(=O)CN(C)C(=O)CN(C)C(=O)CN(C)C(=O)CC[C@H](NC(=O)CC[C@H](NC(=O)CC[C@H](NC(=O)CC[C@H](NC(=O)CCCCCCCCCCCCCCCCC(=O)O)C(=O)O)C(=O)O)C(=O)O)C(=O)O)CC1)C(=O)N[C@@H](CCN)C(=O)N1CCC[C@H]1C(=O)N[C@@H](CCCNC(=N)N)C(=O)NCC(N)=O

Target: T1, human neuromedin U receptor 1
Experiment: cell-based or functional assay

Binder	EC50 (hNMUR1) buffer [µM]
B1	1.3
B2	0.19
B3	> 1
B4	> 1
B5	0.95
B6	1.4
B7	0.87
B8	1.3
